Laboratory results reported in paper PMC8637920, “Structure, Function and Regulation of a Second Pyruvate Kinase Isozyme in Pseudomonas aeruginosa” (Frontiers in Microbiology, 2021).

Columns and labels:
PykFPA = target: T1, PykFPA (Pseudomonas aeruginosa, UniProt Q9I3L4); assay: lactate dehydrogenase-coupled assay, activation; assay type: biochemical; conditions: K-type activator (shifts S0.5 of PEP), 2 mM ADP, allosteric
T1 construct: gene pykF; full-length, 477 residues, untagged, from pET-19m in E. coli BL21(DE3)
T1 sequence (Q9I3L4 1-477): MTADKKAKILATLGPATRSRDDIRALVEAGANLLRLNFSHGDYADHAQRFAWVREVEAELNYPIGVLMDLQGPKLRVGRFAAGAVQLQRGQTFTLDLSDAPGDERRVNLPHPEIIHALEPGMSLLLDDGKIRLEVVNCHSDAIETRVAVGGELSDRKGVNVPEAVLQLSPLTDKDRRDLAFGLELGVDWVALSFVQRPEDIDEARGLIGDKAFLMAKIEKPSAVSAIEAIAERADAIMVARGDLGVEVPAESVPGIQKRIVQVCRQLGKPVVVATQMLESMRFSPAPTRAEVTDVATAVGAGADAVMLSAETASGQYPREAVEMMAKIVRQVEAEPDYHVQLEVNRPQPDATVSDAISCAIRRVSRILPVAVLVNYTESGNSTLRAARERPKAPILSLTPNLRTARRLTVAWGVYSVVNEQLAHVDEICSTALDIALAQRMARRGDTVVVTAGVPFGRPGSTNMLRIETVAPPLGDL

[1] = substrate: C=C(OP(=O)(O)O)C(=O)O; assay: lactate dehydrogenase-coupled assay; assay type: biochemical, Pseudomonas aeruginosa; conditions: 2 mM ADP; Mg2+; no regulator added; sigmoidal
[2] = substrate: Nc1ncnc2c1ncn2[C@@H]1O[C@H](COP(=O)(O)OP(=O)(O)O)[C@@H](O)[C@H]1O; assay: lactate dehydrogenase-coupled assay; assay type: biochemical, Pseudomonas aeruginosa; conditions: 5 mM PEP; Mg2+; no regulator added; hyperbolic
[3] = target: the molecule itself; assay: AUC; purified PykFPA in solution; carried out as previously described (Abdelhamid et al., 2019); analysed with SEDFIT and SEDNTERP

O=C[C@H](O)COP(=O)(O)O [glyceraldehyde 3-phosphate]
lactate dehydrogenase-coupled assay, activation (PykFPA; 1 mM): to a lesser extent, by the EDP intermediates G6P and G3P

O=C(CO)[C@@H](O)[C@H](O)COP(=O)(O)O [xylulose 5-phosphate]
lactate dehydrogenase-coupled assay, activation (PykFPA; 0.5 mM): strongly activated by metabolites from the non-oxidative PPP [(xylulose 5-phosphate (X5P)

O=P(O)(O)OC[C@H]1OC(O)[C@H](O)[C@@H](O)[C@@H]1O (stereo partly shown) [glucose 6-phosphate]
lactate dehydrogenase-coupled assay, activation (PykFPA; 1 mM): to a lesser extent, by the EDP intermediates G6P and G3P

Nc1ncnc2c1ncn2[C@@H]1O[C@H](COP(=O)(O)O)[C@@H](O)[C@H]1O [adenosine 5′-monophosphate]
lactate dehydrogenase-coupled assay, activation (PykFPA; 1 mM): PykFPA (but not PykAPA) was activated by AMP

O=C(CO)[C@H](O)[C@H](O)COP(=O)(O)O [ribulose 5-phosphate]
lactate dehydrogenase-coupled assay, activation (PykFPA; 0.5 mM): ribulose 5-phosphate (RL5P), and R5P]

O=P(O)(O)OC[C@H]1OC(O)[C@H](O)[C@@H]1O (stereo partly shown) [ribose 5-phosphate]
lactate dehydrogenase-coupled assay, activation (PykFPA; 0.15 mM): ribulose 5-phosphate (RL5P), and R5P]

B1: Pseudomonas aeruginosa pyruvate kinase isozyme PykF (PykFPA) (enzyme, UniProt Q9I3L4 1-477, looked up)
chain: T1 sequence (Q9I3L4 1-477)
notes: Pyruvate kinase PykF of Pseudomonas aeruginosa (PA1498), untagged full-length protein, 477 residues, monomer 51.5 kDa; also called PA1498; source: E. coli BL21 (DE3) with plasmid pET-19m (pykF), purified
K0.5 [1]: 1.03 ± 0.01 mM | kcat [1]: 379 s⁻¹ | kcat/Km [1]: 367000 M⁻¹ s⁻¹ | K0.5 [2]: 0.11 ± 0.01 mM | kcat [2]: 433 s⁻¹ | kcat/Km [2]: 3.94e+06 M⁻¹ s⁻¹ | stoichiometry N [3]: 4
